Experiment [1] has as its target MICA antigen (UniGene Hs.130838) with a C-terminal BirA tag (human) (UniProt Q29983). Description: flow cytometry of MICA-coated streptavidin beads, antibody directly conjugated to PE; legend box says 0.0002ug, label inside the plot 0.002µg/ml; streptavidin bead without MICA: 2.16.
The target in experiment [2] is human MICA on transduced B16 melanoma cells (human) (UniProt Q29983). Description: flow cytometry of B16 cells transduced with human MICA, antibody at 10 ug/ml; unstained 11.4; the same antibody on untransduced B16: 7.49 (unstained 7.12). In general terms: A flow cytometer gives signals particle by particle.
Sequence of human MICA on transduced B16 melanoma cells (human) (Q29983 24-383): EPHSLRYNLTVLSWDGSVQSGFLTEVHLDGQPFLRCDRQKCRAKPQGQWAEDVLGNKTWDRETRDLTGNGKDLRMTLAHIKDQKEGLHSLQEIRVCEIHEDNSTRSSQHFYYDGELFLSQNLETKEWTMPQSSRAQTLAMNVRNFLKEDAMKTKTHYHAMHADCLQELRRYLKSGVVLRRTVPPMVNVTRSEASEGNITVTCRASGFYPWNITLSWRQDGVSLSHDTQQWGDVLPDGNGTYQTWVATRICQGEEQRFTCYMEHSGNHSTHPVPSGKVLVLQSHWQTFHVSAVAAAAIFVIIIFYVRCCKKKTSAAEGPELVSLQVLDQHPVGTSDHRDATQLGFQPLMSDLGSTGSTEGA
The target in experiment [3] is MICA antigen (UniGene Hs.130838) with a C-terminal BirA tag (human) (UniProt Q29983). Description: flow cytometry of MICA-coated streptavidin beads, antibody directly conjugated to PE; legend box says 0.024ug, the label inside the plot says 0.01µg/ml (they disagree); streptavidin bead without MICA: 1.95.
Sequence of MICA antigen (UniGene Hs.130838) with a C-terminal BirA tag (human) (Q29983 other isoform, or with tags, fused parts or gaps limits assumed): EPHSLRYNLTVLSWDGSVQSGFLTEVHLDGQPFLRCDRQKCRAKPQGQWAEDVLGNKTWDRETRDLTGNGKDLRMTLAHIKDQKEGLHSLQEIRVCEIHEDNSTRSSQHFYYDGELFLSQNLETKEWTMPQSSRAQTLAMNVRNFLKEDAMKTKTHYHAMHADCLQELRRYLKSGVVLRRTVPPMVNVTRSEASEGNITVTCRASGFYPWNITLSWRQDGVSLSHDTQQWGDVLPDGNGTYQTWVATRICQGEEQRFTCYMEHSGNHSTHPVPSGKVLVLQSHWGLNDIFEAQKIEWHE
Experiment [4] shares this target. As to the kind of experiment: flow cytometry of MICA-coated streptavidin beads, antibody directly conjugated to PE; legend box says 0.001ug, the label inside the plot says 0.24µg/ml (they disagree); streptavidin bead without MICA: 1.95.
Experiment [5] shares this target. As to the kind of experiment: flow cytometry of MICA-coated streptavidin beads, antibody directly conjugated to PE; legend box says 0.005ug, the label inside the plot says 1.2µg/ml (they disagree); streptavidin bead without MICA: 1.98.
Experiment [6] has the same target. Description: flow cytometry of MICA-coated streptavidin beads, antibody directly conjugated to PE; legend box says 0.12ug, the label inside the plot says 0.05µg/ml (they disagree); streptavidin bead without MICA: 1.95.
Experiment [7] shares this target. As to the kind of experiment: flow cytometry of MICA-coated streptavidin beads, Alexa488 anti-human IgG; antibody at 1.2µg/ml; streptavidin bead without MICA: 2.16.
The target is the same in experiment [8]. Description: flow cytometry of MICA-coated streptavidin beads, Alexa488 anti-human IgG; antibody at 30µg/ml; streptavidin bead without MICA: 3.53.
For experiment [9] the target is unchanged. Description: flow cytometry of MICA-coated streptavidin beads, Alexa488 anti-human IgG; antibody at 0.05µg/ml; streptavidin bead without MICA: 2.18.
Experiment [10] deals with human MICA on transduced B16 melanoma cells (human) (UniProt Q29983). As to the kind of experiment: […], antibody at 10 ug/ml; […].
Experiment [11] deals with MICA antigen (UniGene Hs.130838) with a C-terminal BirA tag (human) (UniProt Q29983). As to the kind of experiment: flow cytometry of MICA-coated streptavidin beads, Alexa488 anti-human IgG; antibody at 6µg/ml; streptavidin bead without MICA: 2.63.
Experiment [12] shares this target. Description: flow cytometry of MICA-coated streptavidin beads, Alexa488 anti-human IgG; antibody at 0.24µg/ml; streptavidin bead without MICA: 2.3.
The target in experiment [13] is T1, recombinant MICA alpha 3 domain (human, UniProt Q29983 206-299).
T1 construct: domain: alpha 3 domain; also called Alpha 3 MICA Domain
T1 sequence (looked up): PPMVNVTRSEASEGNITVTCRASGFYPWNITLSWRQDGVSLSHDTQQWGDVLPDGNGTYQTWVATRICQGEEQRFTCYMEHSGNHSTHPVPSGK
As to the kind of experiment: cytometric bead assay: biotinylated MICA alpha 3 domain on streptavidin beads, FITC anti-human IgG, flow cytometry.

In experiment [14] the target is T2, recombinant MICA*009 conjugated to Luminex beads (commercial kit) (human, UniProt Q29983 26-307).
T2 chain: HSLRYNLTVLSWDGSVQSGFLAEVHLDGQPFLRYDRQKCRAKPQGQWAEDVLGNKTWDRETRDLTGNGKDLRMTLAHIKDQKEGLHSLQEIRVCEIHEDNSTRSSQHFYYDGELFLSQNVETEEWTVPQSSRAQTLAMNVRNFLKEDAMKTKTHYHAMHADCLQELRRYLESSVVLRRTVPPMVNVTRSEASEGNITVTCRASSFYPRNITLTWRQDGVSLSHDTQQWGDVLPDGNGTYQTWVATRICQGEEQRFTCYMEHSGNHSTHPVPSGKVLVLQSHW
As to the kind of experiment: Luminex bead assay (One Lambda kit), PE anti-human IgG secondary; bars assigned by their order in the legend box.

Regarding “commercial anti-MICA/MICB monoclonal antibody (clone 6D4, BioLegend)”, the fluorescence value (statistic not given, FL2-H) worked out at 4.31 in [1]; 194 in [3]; 16.8 in experiment [4]; 65.9 in experiment [5]; 391 in [6]. For the same molecule, the Geom. Mean:FL1-H in experiment [2] was found to be 188.

For “negative control antibody (TTCF specific)”, the fluorescence value (statistic not given, FL1-H) in experiment [7] was 2.27; in experiment [8], 3.43; in [9] it was 2.23; in experiment [11], 2.62; in experiment [12], 2.28. In addition, the Geom. Mean:FL1-H in experiment [10] amounted to 11.5.

B1: CM24002 Ab4 (antibody, V domains shown)
VH: QVQLQESGPGLVKPSGTLSLTCAVSGASITNGAWWSWVRQPPGKGLEWIGEIYLNGNTNSNPSLKSRVIISVDKSKNHFSLTLNSVTAADTAVYYCAKNAAYNLEFWGQGALVTVSS
VL: EIVLTQSPGTLSLSPGERATLSCRASQTVSSPYVAWYQQKRGQAPRLLIYGASTRATGIPDRFSGSGSGTDFTLTISRLEPEDFAVYYCQQYDRSYYYTFGQGTKLEIK
notes: also called anti-MICA antibody ID-7; antibody ID 7
For the molecule B1, the binding result in experiment [13] is “no binding (tested: 10 µg/ml)”.

B2: MICA-Ab20 (antibody, V domains shown)
VH: QVQLQQWGAGLLKPSETLALTCAVSGGSFTDHYWSWIRQAPGKGLEWIGEINHSGVTNYNPSLKSRLTISVDTSKSQFSLRLTSVTAADTALYYCAKTGLYYDDVWGTFRPRGGFDSWGQGTLVTVSS
VL: DIVMTQSPDSLAVSLGERATINCKSSQSILYSSDNKNYLAWYQHKPGQPPKLLFYWASIRESGVPDRFSGGGSGTDFTLTISSLQAEDVAVYYCQQYYSPPCSFGQGTKLEIQ
notes: also called anti-MICA antibody ID-1; antibody ID 1
Turning to B2, the binding result in experiment [14] is reported as “no binding (tested: 200 µg/ml)”.

B3: CM33322 Ab11 (antibody, V domains shown)
VH: QVQLQESGPGLVKPSENLSLTCTVSDASMSDYHWSWIRQAAGKGLEWIGRMYSTGSPYYKPSLKGRVTMSIDTSKNQFSLKLASVTAADTAIYYCASGQHIGGWVPPDFWGQGTLVTVSS
VL: DIVMTQTPLSSPVTLGQPASISCRSSEGLVYSDGDTYLSWFHQRPGQPPRLLIYKISNRFSGVPDRFSGSGAGTDFTLKISRVEAEDVGVYYCMQATHFPWTFGQGTKVEVKR
notes: also called CM33322 mAb11; CM33322 11
B3: in [13], the binding result is listed as “no binding (tested: 10 µg/ml)”.

B4: CM24002 Ab2 (antibody, V domains shown)
VH: QVQLQESGPGLVEPSGTLSLTCTVSGGSISRSNWWSWVRQPPGEGLEWIGEIHHIGRSSYNPSLKSRVTMSVDKSQNQFSLRLTSVTAADTAVYYCAKNGYYAMDVWGQGTTVTVSS
VL: EIVLTQSPGTLSLSPGERATLSCRASQSVSSDFLAWYQQKPGQAPRLLIYATSFRATGISDRFSGSGSGTDFSLTINRLEPEDFAVYYCQHYRSSPPWYTFAQGTKLDMRRTVAAPSV
notes: also called anti-MICA antibody ID-6; antibody ID 6
Take B4: the binding result in experiment [13] was “no binding (tested: 10 µg/ml)”.

These data come from patent publication US20160046716A1 (Dana-Farber, published 2016).
